Experimental data published in patent US20200247886A1 (ZLIP, published 2020).
Blank lines part the entries; values can stand above or below the binder they belong to.

What was measured:
[1] = molecular target: T1, CD47 protein (construct not stated; SPR antigen, CD47 coated ELISA plates) (Homo sapiens (Human), UniProt Q08722 19-139, limits assumed); experiment: ELISA on CD47, OD450 against Log[M]; column headed KD beside the legend
T1 construct: also called the antigen

[2] = molecular target: T2, human CD47 expressed on cells (CD47 expressing CHO cells, Jurkat, HL60, DLD1, Raji) (human, UniProt Q08722 19-292); experiment: flow cytometry on human platelets, donor 2, MFI
T2 construct: also called CHO-CD47; IAP

[3] = molecular target: T2, human CD47 expressed on cells (CD47 …); experiment: IC50 as grade, SIRPα blocking on Raji cells; legend +++: <1 nM
[4] = molecular target: T2, human CD47 expressed on cells (CD47 …); experiment: flow cytometry on human red blood cells, donor 1, MFI
[5] = molecular target: T2, human CD47 expressed on cells (CD47 …); experiment: flow cytometry on human red blood cells, donor 2, MFI
[6] = molecular target: T2, human CD47 expressed on cells (CD47 …); experiment: flow cytometry blocking assay on Raji cells, SIRPα is the blocked ligand, MFI
[7] = molecular target: T2, human CD47 expressed on cells (CD47 …); experiment: as above; remark: listed apart in the source
[8] = molecular target: T2, human CD47 expressed on cells (CD47 …); experiment: IC50 as grade, SIRPα blocking on Raji cells (second part of the table); legend +++: <1 nM
[9] = molecular target: T2, human CD47 expressed on cells (CD47 …); experiment: flow cytometry on DLD1 cells, IgG, MFI
[10] = molecular target: T2, human CD47 expressed on cells (CD47 …); experiment: flow cytometry on DLD1 cells, IgG, frequency
[11] = molecular target: T2, human CD47 expressed on cells (CD47 …); experiment: IC50 (nM) MFI as grade, blocking biotinylated SIRPa-Fc binding to DLD1 cells; legend +++: <1 nM
[12] = molecular target: T2, human CD47 expressed on cells (CD47 …); experiment: IC50 (nM) Frequency as grade, blocking biotinylated SIRPa-Fc binding to DLD1 cells; legend +++: <1 nM
[13] = molecular target: T2, human CD47 expressed on cells (CD47 …); experiment: flow cytometry blocking assay: 100 nM biotinylated SIRPa-Fc (blocked ligand) on DLD1 cells expressing CD47, MFI
[14] = molecular target: T2, human CD47 expressed on cells (CD47 …); experiment: flow cytometry blocking assay: 100 nM biotinylated SIRPa-Fc (blocked ligand) on DLD1 cells expressing CD47, frequency
[15] = molecular target: T2, human CD47 expressed on cells (CD47 …); experiment: flow cytometry on CD47 expressing CHO cells, MFI (FL-4)
[16] = molecular target: T3, biotin labelled polyhistidine tagged CD47 protein (Novoprotein, Cat#321) (human, UniProt Q08722 19-139, biotin labelled (site not stated)); experiment: flow cytometry blocking assay: antibody mixed with biotinylated human CD47 protein; blocked ligand SIRPα on cells; binding percentage
T3 construct: Bought protein; also called biotinylated CD47; biotinylated human CD47 protein; not shown: polyhistidine tag

Kd [1]: 1600 pM
B3: H-ABU2a (antibody, V domains shown)
VH: QVQLVQSGAEVKKPGASVKVSCKASGYTFTDFYINWVRQAPGQRLEWMGWIYLGSGNTKYNEKFKGRVTITRDTSASTAYMELSSLRSEDTAVYYCARREERGFAYWGQGTLVTVSS
VL: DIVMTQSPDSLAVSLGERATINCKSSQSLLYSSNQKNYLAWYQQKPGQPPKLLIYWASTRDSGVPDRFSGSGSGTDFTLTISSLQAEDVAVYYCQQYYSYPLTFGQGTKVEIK

IC50 (read off the curve) [7]: ~200 pM | IC50 [8]: < 1000 pM
B5: H-ABU 8 (antibody, V domains shown)
VH: QVQLVQSGAEVKKPGASVKVSCKASGYTFTDNYINWVRQAPGQRLEWMGWVYLGSGNTKYNEKFKGRVTITRDTSASTAYMELSSLRSEDTAVYYCARREERGFAYWGQGTLVTVSS
VL: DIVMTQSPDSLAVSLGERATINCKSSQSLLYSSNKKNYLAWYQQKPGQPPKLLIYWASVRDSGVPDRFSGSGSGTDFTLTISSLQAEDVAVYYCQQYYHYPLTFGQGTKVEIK

EC50 (read off the curve) [9]: ~400 pM | EC50 (read off the curve) [10]: ~50 pM | IC50 [11]: < 1000 pM | IC50 [12]: < 1000 pM | IC50 (read off the curve) [13]: ~300 pM | IC50 (read off the curve) [14]: ~800 pM
B6: ABU14 (IgG, chimeric version of the Fab) (antibody, V domains shown)
VH: EVQLQQSGPELVKPGASVKISCKASGYSFTNYHIHWVKQRPGQGLEWIGWIYPGSGNTKYNEKFKGMAILTADTSSSTAYMQLSSLTSEDSAVYYCARYDYDLYLHSWGQGTTVTVSS
VL: DIQINQSPSSLSASLGDTITITCHASQNINVWLSWYQQKPGNIPKLLIYKASNLHTGVPSRFSGSGSGTGFTLTISSLQPEDIATYYCQQGQSYPLTFGAGTKLEIK

Further lines, the binder ahead of its results:

B1: H-ABU2b (antibody, V domains shown)
VH: QVQLVQSGAEVKKPGASVKVSCKASGYTFTDFYINWVRQAPGQRLEWMGWIYLGSGNTKYNEKFKGRVTITVDTSASTAYMELSSLRSEDTAVYYCARREERGFAYWGQGTLVTVSS
VL: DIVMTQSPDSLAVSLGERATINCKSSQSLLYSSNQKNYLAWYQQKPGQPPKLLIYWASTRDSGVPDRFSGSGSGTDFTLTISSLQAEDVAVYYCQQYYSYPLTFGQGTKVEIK
Kd [1]: 1300 pM

B2: H-ABU2c (antibody, V domains shown)
VH: QVQLVQSGAEVKKPGASVKVSCKVSGYTFTDFYINWVRQAPGQRLEWMGWIYLGSGNTKYNEKFKGRVTITVDTSASTAYMELSSLRSEDTAVYYCARREERGFAYWGQGTLVTVSS
VL: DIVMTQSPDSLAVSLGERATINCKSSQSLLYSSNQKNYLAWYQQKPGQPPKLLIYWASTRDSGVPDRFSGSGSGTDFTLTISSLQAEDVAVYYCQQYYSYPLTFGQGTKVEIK
Kd [1]: 1500 pM

B4: H-ABU 7 (antibody, V domains shown)
VH: QVQLVQSGAEVKKPGASVKVSCKASGYTFTDHYINWVRQAPGQRLEWMGWIYLGSGNTKYNEKFKGRVTITRDTSASTAYMELSSLRSEDTAVYYCARREDRGFAYWGQGTLVTVSS
VL: DIVMTQSPDSLAVSLGERATINCKSSQSLLSSSQKNYLAWYQQKPGQPPKLLIYWASVRDSGVPDRFSGSGSGTDFTLTISSLQAEDVAVYYCQQYYSYPLTFGQGTKVEIK
EC50 (read off the curve) [2]: ~600 pM | IC50 [3]: < 1000 pM | EC50 (read off the curve) [4]: ~1000 pM | EC50 (read off the curve) [5]: ~1000 pM | IC50 (read off the curve) [6]: ~90 pM

B7: ABU9 (IgG, chimeric version of the Fab) (antibody, V domains shown)
VH: EVQLQQSGPELVKPGASVKLSCKASGFTFTNYYIHWVKQRPGQGPEWIGWIYLGSGNTKYNEKFKGKATLTADTSSSTAYLQLSTLISEDSAVYYCARYDYDLYLDSWGQGTTVTVSS
VL: DIKMNQSPSSLSASLGDTITITCHASQNINVWLSWYQQKPGNIPKLLIYKASNLHTGVPSRFSGSGSGTGFTLTISSLQPEDIATYYCQQGQSYPLTFGAGTKLELK
EC50 (read off the curve) [9]: ~400 pM | EC50 (read off the curve) [10]: ~50 pM | IC50 [11]: < 1000 pM | IC50 [12]: < 1000 pM | IC50 (read off the curve) [13]: ~300 pM | IC50 (read off the curve) [14]: ~800 pM

B8: C-ABU2 (antibody, V domains shown)
VH: QVQLQQPGAELVRPGASVKLSCKASGYTFTNYWMNWFKQRPEQGLEWIGRIDPYDSETLYNQKFKDKAILTVDKSSSTAYMQLSSLTSEDSAVYYCAGGGKGGFGYWGQGTLVTVSA
VL: DVLMTQTPLSLPVSLGDQASISCRSSQSIVYSNGNTYLEWYLQKPGQSPKLLIYKVSNRFSGVPDRFSGSGSGTDFTLKISRVEAEDLGVYYCFQGSHVPYTFGGGTKLEIK
EC50 (read off the curve) [15]: ~1000 pM | IC50 (read off the curve) [16]: ~3000 pM
